From patent publication US20240336909A1 (HARPOON THERAPEUTICS, published 2024)

T1: human EpCAM protein (human, UniProt P16422 24-265)
T1 construct: biotinylated in the Octet assays; also called hu EpCAM; biotinylated human EpCAM protein
T1 sequence (looked up): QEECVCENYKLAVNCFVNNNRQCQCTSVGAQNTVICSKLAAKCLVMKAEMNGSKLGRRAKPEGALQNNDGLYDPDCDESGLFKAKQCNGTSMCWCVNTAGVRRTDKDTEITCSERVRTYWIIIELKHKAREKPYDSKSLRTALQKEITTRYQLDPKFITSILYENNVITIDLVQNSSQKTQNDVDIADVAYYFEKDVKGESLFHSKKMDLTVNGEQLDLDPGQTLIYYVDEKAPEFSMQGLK


Tests used:
human EpCAM protein = biological target: T1, human EpCAM protein; experiment: colorimetric ELISA
Text: (§1) Llamas were immunized with purified EpCAM protein expressed in Expi293 cells. A phage display library for expression of heavy variable antibody domains was constructed from circulating B cells. See van der Linden, de Geus, Stok, Bos,van Wassenaar, Verrips, and Frenken. 2000. J Immunol Methods 240:185-195. Phage clones were screened for binding to EpCAM by expressing anti-EpCAM proteins in E coli, preparing periplasmic extracts, and proteins were screened for human and cynomolgus EpCAM binding activity using a colorimetric ELISA.

cynomolgus EpCAM protein = biological target: T2, cynomolgus EpCAM protein (cynomolgus monkey); experiment: colorimetric ELISA
T2 construct: biotinylated in the Octet assays; also called cy EpCAM; cynomolgus monkey EpCAM
Text: as §1

T2 sequence (Q1WER1 24-265): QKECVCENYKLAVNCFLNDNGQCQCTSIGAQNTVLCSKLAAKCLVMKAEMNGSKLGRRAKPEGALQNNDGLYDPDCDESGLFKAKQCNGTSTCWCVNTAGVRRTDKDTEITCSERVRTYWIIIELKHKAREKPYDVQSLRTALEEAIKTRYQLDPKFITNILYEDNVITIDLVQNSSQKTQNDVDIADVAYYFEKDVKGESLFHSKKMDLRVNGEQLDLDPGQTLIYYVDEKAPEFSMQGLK

Row | ELISA absorbance (human EpCAM protein) [absorbance] | Human EpCAM/Control (human EpCAM protein) [ratio] | Cynomolgus EpCAM/Control (cynomolgus EpCAM protein) [ratio] | ELISA absorbance (cynomolgus EpCAM protein) [absorbance] | Binder
1 | 1.1 | 8 | 4 | 0.6 | Llama anti-EpCAM single domain antibody EPL49 (VHH, E. coli periplasmic extract) VHH: QVQLQESGGGLVQAGGSLRLSCAPSGRTSSIFGMGWFRQAPGKEREFVASINWSGGSTSYADSVKGRFTISRDNAKNEMYLQMNSLKFEDTAVYVCAAAVLTNKPSWNFWGQGTQVTVSS
2 |  |  | 2 | 0.2 | Llama anti-EpCAM single domain antibody EPL159 (VHH, E. coli periplasmic extract) VHH: QVQLQESGGGLVQAGGSLRLSCAASGFAFGNHWMYWYRQAPGRGRELVASISSGGSTNYVDSVKGRFTISRDNARNTVYLQMYSLKPEDTAVYYCGTSDNWGQGTQVTVSS
3 | 2.7 | 12 | 9 | 2 | Llama anti-EpCAM single domain antibody EPL10 (VHH, E. coli periplasmic extract) VHH: QVQLQESGGGLVQAGGSLRLSCAASGSVFRANVMGWYRQAPGKQHELVARIDPGGTTTYADPVKGRFTISRDNAKKTVYLQMNSLKPDDTAVYYCNAIILLSGGPKDYWGQGTQVTVSS
4 | 2.5 | 8 | 5 | 1.7 | Llama anti-EpCAM single domain antibody EPL97 (VHH, E. coli periplasmic extract) VHH: QVQLQESGGGLVQAGGSLRLSCAASGIIFRGTTMGWFRQAPGKQRESVASISPLGTTSYSGSVEGRFTVSRDNAKNTLFLQMNSLKSEDTAVYYCNAIQVTNVGPRVYWGQGTQVTVSS
5 | 2.2 | 15 | 24 | 3.6 | Llama anti-EpCAM single domain antibody EPL2 (VHH, E. coli periplasmic extract) VHH: QVQLQESGGGLVQPGGSLRLSCAASESISSFIAVGWYRQAPGKERELVAGINRSGFTYYTDSVKGRFSISRDNAKNTVLLQMTSLKPEDTAVYYCNAGGLYFSNAYTQGDYWGQGTQVTVSS
6 | 1.8 | 13 | 27 | 3.8 | Llama anti-EpCAM single domain antibody EPL43 (VHH, E. coli periplasmic extract) VHH: QVQLQESGGGLVQTGGSLRLSCAASESISSFIAVGWYRQAPGKERELVAGINRSGFTYYTDSVKGRFSISRDNAKNTVLLQMTSLKPEDTAVYYCNAGGLYFSNAYTQGDYWGQGTQVTVSS
7 | 0.4 | 5 | 2 | 0.1 | Llama anti-EpCAM single domain antibody EPL109 (VHH, E. coli periplasmic extract) VHH: QVQLQESGGGLVQPGGSLRLSCASSGFTLDDYTIGWFRQAPGKEREGVSCISRRDDSTYYADSVKGRFTISRDNAKNTVDLQMISLRPEDTAVYYCAATPRSYTLRCLGKFDFQGQGTQVTVSS
8 | 0.9 | 4 | 3 | 0.6 | Llama anti-EpCAM single domain antibody EPL117 (VHH, E. coli periplasmic extract) VHH: QVQLQESGGGLVQAGGSLRLSCAASGNIVRMTNMAWYRQAPGKQREFVATISAGGSTTYVDSVKDRFTISRDNTKNTVYLQMNYLKPEDTAVYYCATGSILTNRGAIPGSWGHGTQVTVSS
9 | 3.4 | 4 | 4 | 2.8 | Llama anti-EpCAM single domain antibody EPL152 (VHH, E. coli periplasmic extract) VHH: QVQLQESGGGLVQAGGSLRLSCVHSGSIFRASTMAWYRQAPGKQRELVAQIMSGGGTNYAGSVKGRFTISRDNANNTVYLQMNSLKPEDTAVYYCNAAQITSWGPKVYWGQGTQVTVSS
10 | 1.4 | 10 | 5 | 0.7 | Llama anti-EpCAM single domain antibody EPL74 (VHH, E. coli periplasmic extract) VHH: QVQLQESGGGLVQAGGSLRLSCAASGSIFGINAMGWYRQAPGKQRESVAFITIGGNTNYLDSVKGRFTISRDNAKNTVYLQMNGLKPEDTAVYYCNTNPPLILTAGGLYWGQGTQVTVSS
11 | 1.1 | 10 | 33 | 3.5 | Llama anti-EpCAM single domain antibody EPL60 (VHH, E. coli periplasmic extract) VHH: QVQLQESGGGLVQAGGSLRLSCAASEYILSMYRMAWYRQAPGKVRELVADMSSGGTTNYADFVKGRFTISRDNDRNTVYLQMNRLQPEDTAAYYCNVAGRTGPPSYDAFNNWGQGTQVTVSS
12 | 3.6 | 16 | 17 | 4 | Llama anti-EpCAM single domain antibody EPL156 (VHH, E. coli periplasmic extract) VHH: QVQLQESGGGLVQPGASLRVSCAASEYILSMYRMAWYRQAPGKVRELVADMSSGGTTNYADFVKGRFTISRDNDRNTVYLQMNRLQPEDTAAYYCNVAGRTGPPSYDAFNNWGQGTQVTVSS
13 | 0.6 | 3 | 2 | 0.4 | Llama anti-EpCAM single domain antibody EPL145 (VHH, E. coli periplasmic extract) VHH: QVQLQESGGGLVQAGGSLRLSCAASGFIFRAASMGWFRQSPGNERELVATVSSGGFTNYADSVKGRFTISRDNAKNTVYLQMNSLKPEDTAVYFCGATFVRSDGHHTIYGQGTQVTVSS
14 | 1.6 | 10 | 10 | 1.7 | Llama anti-EpCAM single domain antibody EPL90 (VHH, E. coli periplasmic extract) VHH: QVQLQESGGGLVQAGGSLRLSCAASGFIFRAASMAWYRQSPGNERELVASISSGAFTNYADSVKARFTISRDNAKNTVYLQMNSLKPEDTAVYFCGATFLRSDGHHTINGQGTQVTVSS
15 | 3.1 | 3 | 3 | 2.7 | Llama anti-EpCAM single domain antibody EPL138 (VHH, E. coli periplasmic extract) VHH: QVQLQESGGGLVQAGGSLRLSCAASGFIFRAASMDWYRQFPGNERESIATISSGGFTNYADSVKGRFTISRDNAKNTVYLQMNSLKPEDTAVYFCGATFLRSDGHHTINGQGTQVTVSS
16 | 3.4 | 5 | 4 | 2.8 | Llama anti-EpCAM single domain antibody EPL126 (VHH, E. coli periplasmic extract) VHH: QVQLQESGGGLVQAGGSLRLSCAASGFIFRAASMGWYRQSPGNERELVATINSGGFTNYADSVKGRFTISRDNAKNTGYLQMNSLKPEDTAVYFCAATFLRSDGQPPIWGQGTQVTVSS
17 | 0.6 | 7 | 34 | 2.8 | Llama anti-EpCAM single domain antibody EPL164 (VHH, E. coli periplasmic extract) VHH: QVQLQESGGGLVQAGGSLRLSCAASGFIFRAASMDWYRQSPGTQPELVATISSTGFTNYANSVKGRFTISRDNAKNTVYLQMNSLKPEDTAVYFCGATFLRSDGQHSIYGQGTQVTVSS
18 | 3.4 | 5 | 4 | 2.9 | Llama anti-EpCAM single domain antibody EPL118 (VHH, E. coli periplasmic extract) VHH: QVQLQESGGGLVQAGGSLRLSCAASGFIFRAASMGWFRQSPGNERELVATVSSGDFTNYADSVKGRFTISRDNAKNTVYLQMNSLKPEDTAVYFCGATFVRSDGHHTIYGQGTQVTVSS
19 | 0.4 | 5 | 11 | 0.9 | Llama anti-EpCAM single domain antibody EPL127 (VHH, E. coli periplasmic extract) VHH: QVQLQESGGGLVQAGGSLRLSCAAPGFAFNDHAILWFRQAPGKEREGVSEICRDGTTYYTDSVKGRFTISSDNAKNTVYLQMNSVKTDDTAVYYCAVDRRRYYCSGNRAFSSDYYYWGQGTQVTVSS
20 | 1.3 | 12 | 8 | 0.9 | Llama anti-EpCAM single domain antibody EPL189 (VHH, E. coli periplasmic extract) VHH: QVQLQESGGGLVQPGGSLRLSCAASGRINSINTMGWYRQAPGNQRELVAEITRGGTTNYADSVQGRYAISRDNAKNLVYLQMNSLKPEDTDVYYCNAQTFPTFSRPTGLDYWGQGTQVTVSS
21 | 1.1 | 8 | 4 | 0.5 | Llama anti-EpCAM single domain antibody EPL58 (VHH, E. coli periplasmic extract) VHH: QVQLQESGGGLVQAGGSLRLSCAASGPIFSDTIRTMGWYRQAAGKQRELVATIASFPSRTNYVDSVKGRFTISRDIAKNTVYLQMDSLKPEDTAVYYCNVDLASIPTKTYWGQGTQVTVSS
22 | 3.1 | 17 | 11 | 2 | Llama anti-EpCAM single domain antibody EPL78 (VHH, E. coli periplasmic extract) VHH: QVQLQESGGGLVQPGGSLRLSCATSANRFNINVMGWYRQAPGQQRELVATINIGGSTDYADSVKGRFTISRDNAKNTVYLQLSDLKPEDTAVYYCNVKLRVSGPTGPNVYWGQGTQVTVSS
23 | 2 | 3 | 2 | 1.1 | Llama anti-EpCAM single domain antibody EPL83 (VHH, E. coli periplasmic extract) VHH: QVQLQESGGGLVQAGGSLRLSCAVSGSIFSLNTLAWYRQAPGRQRDLIARITGGGTTVYADSVKGRFTISRDNAKNTVYLQMNSLKPEDTAVYYCNLMVRHPSGSTYEYWGQGTQVTVSS
24 | 0.9 | 4 | 5 | 1.1 | Llama anti-EpCAM single domain antibody EPL82 (VHH, E. coli periplasmic extract) VHH: QVQLQESGGGLVQAGGSLKLSCTASGTILSTMAWYRQAPGKQRELVATISRGGTTNYSDSVKGRFAISRDSTKNTVYLQMNSLKPEDTAVYYCNTPLTDYGMGYNWGQGTQVTVSS
